Measured values taken from WO2015086830A1 (dated 2015).

Tests used:
[1] = target: VEGF (vascular endothelial growth factor) (UniProt P15692-4 27-191, limits assumed); test: cell-based or functional assay
[2] = target: T1, VEGF165 (UniProt P15692-4 27-191); test: in vitro binding; method not stated
T1 construct: P15692 is the human VEGFA entry; VEGF165 is one isoform of that entry; also called VEGFA isoform 165
T1 sequence (P15692 other isoform, or with tags, fused parts or gaps limits assumed): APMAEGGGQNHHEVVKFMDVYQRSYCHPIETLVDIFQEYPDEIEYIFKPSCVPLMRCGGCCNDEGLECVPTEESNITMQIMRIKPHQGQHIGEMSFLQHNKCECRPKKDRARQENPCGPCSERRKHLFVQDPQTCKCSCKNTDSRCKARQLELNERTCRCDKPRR

Sequence of VEGF (vascular endothelial growth factor) (P15692 other isoform, or with tags, fused parts or gaps limits assumed): as above

B1: scFv3, anti-VEGF-scFv comprising SEQ ID No.: 3 (scFv)
scFv: EIVMTQSPSTLSASVGDRVIITCQASEIIHSWLAWYQQKPGKAPKLLIYLASTLASGVPSRFSGSGSGAEFTLTISSLQPDDFATYYCQNVYLASTNGANFGQGTKLTVLGGGGGSGGGGSGGGGSGGGGSEVQLVESGGGLVQPGGSLRLSCTASGFSLTDYYYMTWVRQAPGKGLEWVGFIDPDDDPYYATWAKGRFTISRDNSKNTLYLQMNSLRAEDTAVYYCAGGDHNSGWGLDIWGQGTLVTVSS
notes: About 26.3 kDa
VEGF induced HUVEC proliferation, IC50 [1]: 0.19 nM | Kd [2]: 0.0284 nM
